Laboratory results reported in patent US6448390.

Target: amphotropic retrovirus receptor, endogenous on human 293 cells (human) (UniProt Q08357)
Assay: cell-based or functional assay

Chain of UniProt Q08357 (Q08357 whole entry): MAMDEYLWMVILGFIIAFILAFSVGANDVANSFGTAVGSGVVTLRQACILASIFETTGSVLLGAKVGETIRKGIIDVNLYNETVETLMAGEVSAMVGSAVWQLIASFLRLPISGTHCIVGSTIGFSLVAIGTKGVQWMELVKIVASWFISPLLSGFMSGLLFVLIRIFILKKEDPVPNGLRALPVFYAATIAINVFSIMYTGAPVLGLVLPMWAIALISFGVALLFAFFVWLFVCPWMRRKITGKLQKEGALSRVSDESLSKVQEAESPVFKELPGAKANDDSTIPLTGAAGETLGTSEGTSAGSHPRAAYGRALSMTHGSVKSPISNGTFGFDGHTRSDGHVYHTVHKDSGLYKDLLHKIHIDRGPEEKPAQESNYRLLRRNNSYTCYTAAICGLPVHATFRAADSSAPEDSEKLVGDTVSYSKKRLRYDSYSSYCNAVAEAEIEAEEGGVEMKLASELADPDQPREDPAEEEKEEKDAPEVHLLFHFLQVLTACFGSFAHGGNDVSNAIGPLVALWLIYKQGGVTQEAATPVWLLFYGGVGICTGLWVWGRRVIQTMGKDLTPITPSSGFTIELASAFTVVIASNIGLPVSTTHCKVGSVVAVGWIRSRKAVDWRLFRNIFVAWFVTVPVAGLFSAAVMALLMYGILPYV

For “ampho/eco+Q227R/D243Y fusion envelope protein: residues 1-208 of amphotropic 4070A envelope protein fused between Serine 6 and Proline 7 of MoMLV mutant envelope protein Q227R/D243Y”, the delivery of the lacZ gene (infectious titer) to human 293 cells expressing the amphotropic receptor but not the ecotropic receptor was 1000 fold.
